Experimental data published in US20040146507A1 (Genentech, published 2004).
Changes are numbered by the printed parent chain. Where two headings read alike, the source gives them in different places. Blank lines part the entries; values can stand above or below the binder they belong to.

Assays:
[1] = biological target: T1, rhesus CD11a (rhesus, UniProt H9Z8N3 26-1169); assay: rhesus PBL binding
T1 construct: whole, on cells; On rhesus peripheral blood lymphocytes or leukocytes; also called rhCD11a
T1 sequence: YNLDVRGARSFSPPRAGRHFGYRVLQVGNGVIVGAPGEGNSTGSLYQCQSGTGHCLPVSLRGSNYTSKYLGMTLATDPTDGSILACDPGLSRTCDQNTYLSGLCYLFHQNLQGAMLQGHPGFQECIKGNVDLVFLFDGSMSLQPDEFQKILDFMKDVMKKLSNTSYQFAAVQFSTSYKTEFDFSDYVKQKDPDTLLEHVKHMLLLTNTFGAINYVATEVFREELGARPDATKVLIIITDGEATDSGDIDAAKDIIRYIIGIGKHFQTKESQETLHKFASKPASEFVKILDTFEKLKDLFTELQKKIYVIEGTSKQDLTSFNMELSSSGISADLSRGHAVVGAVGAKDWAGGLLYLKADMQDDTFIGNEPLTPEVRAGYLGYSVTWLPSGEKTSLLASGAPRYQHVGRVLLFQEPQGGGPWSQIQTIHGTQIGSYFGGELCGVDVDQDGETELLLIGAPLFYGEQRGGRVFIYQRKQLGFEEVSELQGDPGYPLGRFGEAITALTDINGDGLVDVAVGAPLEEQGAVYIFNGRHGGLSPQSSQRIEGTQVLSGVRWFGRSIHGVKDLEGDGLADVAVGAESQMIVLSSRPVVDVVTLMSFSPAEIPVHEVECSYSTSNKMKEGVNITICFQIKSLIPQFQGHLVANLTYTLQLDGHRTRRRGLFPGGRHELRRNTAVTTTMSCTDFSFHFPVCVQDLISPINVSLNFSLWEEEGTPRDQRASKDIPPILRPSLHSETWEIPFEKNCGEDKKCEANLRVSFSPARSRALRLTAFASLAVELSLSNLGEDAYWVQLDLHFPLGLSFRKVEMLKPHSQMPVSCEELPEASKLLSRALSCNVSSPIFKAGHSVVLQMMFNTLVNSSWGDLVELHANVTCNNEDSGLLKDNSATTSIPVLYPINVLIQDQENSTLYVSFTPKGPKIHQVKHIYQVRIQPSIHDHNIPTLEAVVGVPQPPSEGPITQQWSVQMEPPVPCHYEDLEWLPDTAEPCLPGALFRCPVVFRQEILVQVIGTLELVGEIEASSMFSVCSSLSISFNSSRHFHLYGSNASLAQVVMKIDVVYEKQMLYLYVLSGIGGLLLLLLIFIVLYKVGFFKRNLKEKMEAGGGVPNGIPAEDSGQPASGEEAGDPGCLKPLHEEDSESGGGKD

[2] = biological target: T1, rhesus CD11a; assay: rhesus PBL binding; remark: listed apart in the source
[3] = biological target: T2, human CD11a (human, UniProt P20701 26-1170); assay: FACScan, Jurkat cells
T2 construct: whole, on cells; On Jurkat T-cells or human peripheral blood mononuclear cells, as part of LFA-1; also called CD11a on Jurkat cells; alpha subunit of LFA-1
Experimental: (§1) Aliquots of 10⁶ Jurkat T-cells were incubated with serial dilutions of humanized and control antibodies in PBS-0.1% BSA-10 mM sodium azide for 45 min at 4° C. The cells were washed and then incubated in fluorescein-conjugated goat anti-human F(ab′)₂ (Organon Teknika, Westchester, Pa.) for 45 min at 4° C. Cells were washed and analysed on a FACScan (Becton Dickinson, Mountain View, Calif.). 8×10³ cells were acquired by list mode and gated by forward light scatter versus side light scatter, thereby excluding dead cells and debris.

[4] = biological target: T2, human CD11a; assay: FACScan, Jurkat cells; remark: listed apart in the source
Experimental: as §1
(§2) To determine which CDR residues were involved in binding to human CD11a an alanine-scan (Cunningham et al., Science 244:1081 (1989)) was performed on the CDR residues of HuIgG1. Each mutant was tested for binding to CD11a on Jurkat cells. In the light chain only CDR-L3 contributes to binding.
Target sequence in this assay (P20701 26-1170): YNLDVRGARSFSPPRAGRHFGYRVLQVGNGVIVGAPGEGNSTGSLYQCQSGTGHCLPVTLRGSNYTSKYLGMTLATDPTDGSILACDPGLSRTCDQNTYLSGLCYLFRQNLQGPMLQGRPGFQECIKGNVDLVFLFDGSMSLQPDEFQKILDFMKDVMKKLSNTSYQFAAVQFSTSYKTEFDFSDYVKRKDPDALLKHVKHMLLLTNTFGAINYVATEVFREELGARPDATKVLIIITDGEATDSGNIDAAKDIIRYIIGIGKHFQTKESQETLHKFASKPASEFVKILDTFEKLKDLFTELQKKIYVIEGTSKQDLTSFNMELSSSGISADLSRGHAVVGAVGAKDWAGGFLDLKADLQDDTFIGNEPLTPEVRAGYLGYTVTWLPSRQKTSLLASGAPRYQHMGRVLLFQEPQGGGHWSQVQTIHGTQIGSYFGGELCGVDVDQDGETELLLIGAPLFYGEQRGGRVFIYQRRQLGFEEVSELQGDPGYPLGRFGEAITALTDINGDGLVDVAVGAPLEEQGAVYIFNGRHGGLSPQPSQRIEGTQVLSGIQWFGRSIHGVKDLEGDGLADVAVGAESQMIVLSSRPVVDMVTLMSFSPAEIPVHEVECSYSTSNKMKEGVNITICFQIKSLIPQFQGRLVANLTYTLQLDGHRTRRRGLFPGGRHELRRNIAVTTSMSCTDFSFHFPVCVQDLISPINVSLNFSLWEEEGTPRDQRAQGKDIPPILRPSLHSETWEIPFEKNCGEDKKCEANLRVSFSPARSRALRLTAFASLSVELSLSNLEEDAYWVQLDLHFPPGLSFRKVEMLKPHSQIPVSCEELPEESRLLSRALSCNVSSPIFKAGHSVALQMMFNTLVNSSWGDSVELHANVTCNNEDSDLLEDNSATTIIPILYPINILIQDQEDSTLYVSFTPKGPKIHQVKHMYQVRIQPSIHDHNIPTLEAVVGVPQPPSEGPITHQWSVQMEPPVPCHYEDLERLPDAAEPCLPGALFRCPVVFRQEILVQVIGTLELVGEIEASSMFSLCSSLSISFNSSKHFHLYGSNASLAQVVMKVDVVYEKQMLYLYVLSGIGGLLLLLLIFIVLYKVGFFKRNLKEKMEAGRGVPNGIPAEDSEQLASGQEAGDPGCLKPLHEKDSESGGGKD

[5] = biological target: T1, rhesus CD11a; assay: rhesus PBL binding; remark: listed apart in the source
[6] = biological target: T1, rhesus CD11a; assay: rhesus PBL binding; end of range assigned by the printed EC50s
[7] = biological target: T2, human CD11a; assay: FACScan, Jurkat cells; remark: listed apart in the source
Experimental: as §1, §2

[8] = biological target: T1, rhesus CD11a; assay: rhesus PBL binding; remark: listed apart in the source
[9] = biological target: T1, rhesus CD11a; assay: binding to rhesus CD11a compared with human CD11a
[10] = biological target: T2, human CD11a; assay: saturation binding, 125I-antibody, human lymphocytes; Kd(app)
Experimental: (§3) Radiolabeled antibodies were prepared using Iodo-Gen (Pierce, Rockford, Ill.) according to the manufacturer's instructions. 50 μg of antibody and 1 mCi¹²⁵I (DuPont, Wilmington, Del.) were added to each tube and incubated for 15 min at 25° C. Radiolabeled proteins were purified from the remaining free ¹²⁵I using PD-10 columns (Pharmacia, Uppsala, Sweden) equilibrated in Hank's Balanced Salt Solution (HBSS, Life Technologies, Grand Island, N.Y.) containing 0.2% gelatin.
(§4) Antibody affinities were determined by saturation binding using either peripheral blood mononuclear cells (murine MHM24 and HuIgG1) or rhesus leukocytes (MHM23, RhIgG1). In each assay, a radiolabeled antibody was serially diluted in HBSS-0.2% gelatin in quadruplicate. Nonspecific binding was determined by the addition of 500 nM final concentration of homologous unlabeled antibody in duplicate through the serial dilution. Human lymphocytes or rhesus leukocytes were added to the plates in a volume of 170 μl per well. Plates were incubated for 2 hr at room temperature on an orbital plate shaker. After incubation, cells were harvested using a SKATRON™ cell harvester (Lier, Norway) and washed 10 times with PBS containing 0.25% gelatin and 0.1% sodium azide. Samples were then counted for 1 min in an LBK Wallac GammaMaster gamma counter (Gaithersburg, Md.). […]

[11] = biological target: T2, human CD11a; assay: saturation binding, human lymphocytes, donor 1; Kd(app)
Experimental: as §3, §4

[12] = biological target: T2, human CD11a; assay: saturation binding, human lymphocytes, donor 2; Kd(app)
Experimental: as §3, §4

[13] = biological target: T2, human CD11a; assay: cell-based or functional assay

- Mutant EC50/HuIgG1 EC50 [1]: 0.3 ratio
- fold improvement in binding over HuIgG1 [2]: 3 fold
- Mutant EC50/HuIgG1 EC50 [3]: 147 ratio
- Var.EC50/HuIgG1 EC50 [4]: 147 ratio
- Var.EC50/HuIgG1 EC50 [5]: 0.3 ratio
B1: HuIgG1 mutant AspH54Ala (antibody, V domains shown)
VH: EVQLVESGGGLVQPGGSLRLSCAASGYSFTGHWMNWVRQAPGKGLEWVGMIHPSASETRYNQKFKDRFTISVDKSKNTLYLQMNSLRAEDTAVYYCARGIYFYGTTYFDYWGQGTLVTVSS
VL: DIQMTQSPSSLSASVGDRVTITCRASKTISKYLAWYQQKPGKAPKLLIYSGSTLQSGVPSRFSGSGSGTDFTLTISSLQPEDFATYYCQQHNEYPLTFGQGTKVEIK
notes: HuIgG1 mutant, human IgG1; Kabat numbering

- fold improvement over EC50 of HuIgG1 for rhesus CD11a [6]: 240 to 415 fold
- fold weaker than EC50 of HuIgG1 for human CD11a [6]: 3 to 5 fold
- EC50 [2]: 0.11 nM
- Var.EC50/HuIgG1 EC50 [7]: 24.9 ratio
- Var.EC50/HuIgG1 EC50 [8]: 0.002 ratio
B2: HuIgG1 mutant H2C11 (antibody, V domains shown)
VH: B1 VH with H52A, S54A, A55S, E57N
VL: DIQMTQSPSSLSASVGDRVTITCRASKTISKYLAWYQQKPGKAPKLLIYSGSTLQSGVPSRFSGSGSGTDFTLTISSLQPEDFATYYCQQHNEYPLTFGQGTKVEIKR

- Mutant EC50/HuIgG1 EC50 [1]: 4.4 ratio
- Mutant EC50/HuIgG1 EC50 [3]: 20 ratio
B3: HuIgG1 mutant AspH54Gln (antibody, V domains shown)
VH: B1 VH with A55Q
VL: B1 VL
notes: HuIgG1 mutant, human IgG1; Kabat numbering; also called AspH54 change to Gln

- fold improvement in binding over HuIgG1 [2]: 77 fold
- Var.EC50/HuIgG1 EC50 [7]: 10.8 ratio
- Var.EC50/HuIgG1 EC50 [4]: 10.8 ratio
- Var.EC50/HuIgG1 EC50 [8]: 0.013 ratio
- Var.EC50/HuIgG1 EC50 [5]: 0.013 ratio
B4: HuIgG1 mutant H2A1 (antibody, V domains shown)
VH: B1 VH with H52A, S54A, A55D
VL: B1 VL
notes: as for B1

- Mutant EC50/HuIgG1 EC50 [1]: 0.1 ratio
- fold improvement in binding over HuIgG1 [2]: 10 fold
- Mutant EC50/HuIgG1 EC50 [3]: 26 ratio
B5: HuIgG1 mutant AspH54Asn (antibody, V domains shown)
VH: B1 VH with A55N
VL: B1 VL
notes: as for B1

- fold reduction in binding against human CD11a [9]: ~1000 fold
- Kd [10]: 0.15 nM
- Kd [11]: 0.16 nM
- Kd [12]: 0.13 nM
- IC50, blocking of cell adhesion, Jurkat: HuK [13]: 0.09 nM
B6: murine MHM24 (antibody, V domains shown)
VH: EVQLQQPGAELMRPGASVKLSCKASGYSFTGHWMNWVRQRPGQGLEWIGMIHPSDSETRLNQKFKDKATLTVDKSSSSAYMQLSSPTSEDSAVYYCARGIYFYGTTYFDYWGQGTTLTVSS
VL: DVQITQSPSYLAASPGETISINCRASKTISKYLAWYQEKPGKTNKLLIYSGSTLQSGIPSRFSGSGSGTDFTLTISSLEPEDFAMYYCQQHNEYPLTFGTGTKLELKR
notes: Murine anti-human CD11a monoclonal antibody; also called muMHM24; murMHM24

- EC50 [3]: 5.2 ng/mL
- EC50 F(ab)/EC50 F(ab)-2 [3]: 0.006 ratio
- IC50, blocking of cell adhesion, Jurkat: HuK [13]: 0.1 nM
B7: chimeric MHM24 IgG1 (antibody, V domains shown)
VH: B6 VH
VL: B6 VL
notes: Murine VL and VH fused to human constant light and heavy (IgG1) chains; also called chIgG1; chimeric IgG1
